The record followed here is patent US20200317744A1 (published 2020).

The target in assay [1] is T1, human IL-4Rα (human, UniProt P24394 26-232, limits assumed, biotinylated).
T1 construct: also called IL-4Rα receptor
T1 sequence (looked up): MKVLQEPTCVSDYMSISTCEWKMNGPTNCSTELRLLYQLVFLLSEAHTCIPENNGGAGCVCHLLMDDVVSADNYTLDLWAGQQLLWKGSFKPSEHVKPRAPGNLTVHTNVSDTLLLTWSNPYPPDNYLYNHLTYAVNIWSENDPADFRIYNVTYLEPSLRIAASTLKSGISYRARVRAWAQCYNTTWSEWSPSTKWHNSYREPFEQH
Put plainly: biolayer interferometry. Background: Biolayer interferometry detects binding as a change in optical thickness at a sensor tip.

Assay [2] concerns the target T2, IL-4 receptor αγc heterodimer (IL-4Rαγc) (human, UniProt P24394 26-232; P31785 23-254, limits assumed, biotinylated at the C-terminal biotin acceptor peptide (BirA)).
T2 construct: also called γc when IL-4Rα is present in solution
T2 sequence 1: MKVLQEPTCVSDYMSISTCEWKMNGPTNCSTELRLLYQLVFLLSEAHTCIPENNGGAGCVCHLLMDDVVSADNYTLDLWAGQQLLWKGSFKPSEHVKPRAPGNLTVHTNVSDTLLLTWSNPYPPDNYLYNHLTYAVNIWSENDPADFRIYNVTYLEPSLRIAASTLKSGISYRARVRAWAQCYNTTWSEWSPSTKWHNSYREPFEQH
T2 sequence 2: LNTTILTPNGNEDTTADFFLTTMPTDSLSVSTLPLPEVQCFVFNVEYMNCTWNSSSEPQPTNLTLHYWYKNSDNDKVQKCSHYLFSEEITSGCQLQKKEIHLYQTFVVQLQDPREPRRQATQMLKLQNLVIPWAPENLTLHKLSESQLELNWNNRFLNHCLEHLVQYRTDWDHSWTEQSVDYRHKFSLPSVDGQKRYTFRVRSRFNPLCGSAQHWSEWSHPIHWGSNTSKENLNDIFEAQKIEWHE
Put plainly: biolayer interferometry; γc on sensor, IL-4Rα in solution. How it is done:
Less than 100 response units (RU) of each ligand was immobilized to minimize mass transfer effects. […] Surface regeneration for all interactions was conducted using 15 s exposure to 1 M MgCl2 in 10 mM sodium acetate pH 5.5. SPR experiments were carried out in HBS-P+ buffer (GE Healthcare) supplemented with 0.2% bovine serum albumin (BSA) at 25° C. and all binding studies were performed at a flow rate of […] to prevent analyte rebinding. Data was visualized and processed using the Biacore T100 evaluation software version 2.0 (GE Healthcare). Equilibrium titration curve fitting and equilibrium binding dissociation (KD) value determination was implemented using GraphPad Prism assuming all binding interactions to be first order. Biolayer interferometry: binding data were collected in a Octet RED96 (ForteBio, Menlo Park, Calif.) and processed using the instrument's integrated software using a 1:1 binding model. […] Analyte proteins were diluted from concentrated stocks into binding buffer.

B1: Neoleukin-4 (i.e. IL4_G2_neo2_40_1F_seq36_S11_MIF) (designed binder)
chain: PKKKIQIMAEEALKDALSILNIVKTNSPPAEEQLERFAKRFERNLWGIARLFESGDQKDEAEKAKRMIEWMKRIKTTASEDEQEEMANAIITILQSWFFS
notes: also called Neo-4
As to B1, the binding result in assay [1] and in assay [2] was “binds” each time.
